Assay results from article PMC2700515 (The Journal of Cell Biology, 2009).

Legend:
[1] = target: T1, hCen2, purified (GST removed) (human, UniProt P41208 1-172); test: pull-down
T1 sequence: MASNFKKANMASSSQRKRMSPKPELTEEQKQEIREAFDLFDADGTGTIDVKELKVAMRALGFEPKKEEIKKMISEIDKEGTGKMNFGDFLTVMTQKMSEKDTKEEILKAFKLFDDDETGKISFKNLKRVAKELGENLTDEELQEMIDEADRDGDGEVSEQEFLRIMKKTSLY

[2] = target: T2, hCen3, purified (GST removed) (human, UniProt O15182 1-167); test: pull-down
T2 sequence: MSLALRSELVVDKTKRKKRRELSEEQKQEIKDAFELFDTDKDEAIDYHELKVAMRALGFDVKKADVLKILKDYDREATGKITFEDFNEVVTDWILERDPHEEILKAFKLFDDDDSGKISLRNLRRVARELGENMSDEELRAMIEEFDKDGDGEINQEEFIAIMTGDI

B1: GST-hPOC5 CBR2+3 (aa 222-304) (domain or fragment)
chain: EISIGRKDEVISSLSHAIGKQKEKIELMRTFFHWRIGHVRARQDVYEGKLADQYYQRTLLKKVWKVWRSVVQKQWKDVVERAC
binding result [1]: binds
binding result [2]: binds
